Here are results for three molecules from patent US20090124537A1 (THRASOS, published 2009).

B1: extracellular domain (ECD) of the type II receptor daf-4, hexa-histidine tagged (receptor)
chain: WANTLVSKVAQSNGTGTIKVSAPAKPTLRRMDNEEDEVISIECVYYDEMECEKSGDCEITKKTCYSEAHLKAVGCLAVFGLPTQEINSTEPYLKVDKPQYKSLGCMPYQHADSMNCENESSCRQGRSFRGGIGMCCCSTNNCNMPDLIEMVNPSLKKDSDNSALLWASTPSNMDLESLDKSSSRASQPELAPEDPEDVEHHHHHH
modifications: heavily glycosylated
notes: Expressed in CHO cells; also called daf-4 ECD; ECD of daf-4 receptor
B2: F2-3 (peptide)
peptide: CYFDDSSNVICKKYRS
modifications: disulfide 1-11
notes: also called Peptide F2-3; BMP test agent F2-3
B3: bone morphogenetic protein-7 (ligand, UniProt P18075 293-431, looked up)
chain: STGSKQRSQNRSKTPKNQEALRMANVAENSSSDQRQACKKHELYVSFRDLGWQDWIIAPEGYAAYYCEGECAFPLNSYMNATNHAIVQTLVHFINPETVPKPCCAPTQLNAISVLYFDDSSNVILKKYRNMVVRACGCH
modifications: radio-iodinated (125I, lactoperoxidase method) when used as tracer; glycoprotein
notes: also called BMP-7

Assay [1] concerns the target B3. The experiment in a line: Scatchard analysis of BMP-7 binding to purified daf-4 ECD.
Assay [2] addresses T1, BMP-7 receptor of ROS cell plasma membrane fraction (ROS cell type II BMP receptor) (rat).
T1 construct: whole, on cells; Used as a plasma membrane fraction of ROS cells, not as a purified protein; also called BMP-7 receptor-enriched plasma membrane fraction of ROS cells; ROS cell receptor
Put plainly: radioligand receptor assay, displacement of 125I-BMP-7 from ROS cell plasma membranes.

Assay [3] addresses T1, BMP-7 receptor of ROS cell plasma …. Put plainly: radioligand binding of 125I-BMP-7 to ROS cell receptor-enriched plasma membrane fraction. How it is done: Receptors from ROS cells are obtained by a procedure previously described (Dattatreyamurty, B., et al., (1986) J. Biol. Chem. 261.). […] In a typical assay, fixed amounts of ¹²⁵I-labeled sol. […] The assay incubations were carried out in a reaction volume of 300 μl with shaking for 22 hrs. at 4° C. […] The supernatants were aspirated and pellets washed before counting in a gamma counter (Packard Instr. Downers Grove, Ill.).

Bridges are numbered along the chain shown (N, C = ends). Where no end group is shown, it is not given here.

In assay [1], B1 registered a Ka of 2.96e+10 M⁻¹. A word on the IC50: it is the concentration that inhibits the measured activity by half. A high value points to weaker potency in that assay. For the molecule B2, the IC50 in assay [2] came to 10 µM.

Regarding B3, the Ka in assay [3] is 4.38e+09 M⁻¹.
